Tests used:
[1] = target: TLR2 on human monocytes (human) (UniProt O60603); experiment: flow cytometry on monocytes of a patient's blood sample, 3 µg/mL PE-labeled control antibody
[2] = target: TLR2 on human monocytes (human) (UniProt O60603); experiment: flow cytometry on monocytes, Sample 1, antibody at 1 µg/mL
[3] = target: TLR2 on human monocytes (human) (UniProt O60603); experiment: flow cytometry on monocytes, Sample 1, antibody at 3 µg/mL
[4] = target: TLR2 on human monocytes (human) (UniProt O60603); experiment: flow cytometry on monocytes, Sample 2, antibody at 1 µg/mL
[5] = target: TLR2 on human monocytes (human) (UniProt O60603); experiment: flow cytometry on monocytes, Sample 2, antibody at 3 µg/mL
[6] = target: TLR2 on human monocytes (human) (UniProt O60603); experiment: flow cytometry on monocytes, Sample 3, antibody at 1 µg/mL
[7] = target: TLR2 on human monocytes (human) (UniProt O60603); experiment: flow cytometry on monocytes, Sample 3, antibody at 3 µg/mL
[8] = target: TLR2 on human monocytes (human) (UniProt O60603); experiment: flow cytometry on monocytes, Sample 1, instrument setting FL534
[9] = target: TLR2 on human monocytes (human) (UniProt O60603); experiment: flow cytometry on monocytes, Sample 1, instrument setting FL634
[10] = target: TLR2 on human monocytes (human) (UniProt O60603); experiment: flow cytometry on monocytes, Sample 2, instrument setting FL534
[11] = target: TLR2 on human monocytes (human) (UniProt O60603); experiment: flow cytometry on monocytes, Sample 2, instrument setting FL634
[12] = target: TLR2 on human monocytes (human) (UniProt O60603); experiment: flow cytometry on monocytes, Sample 3, instrument setting FL534
[13] = target: TLR2 on human monocytes (human) (UniProt O60603); experiment: flow cytometry on monocytes, Sample 3, instrument setting FL634
[14] = target: TLR2 on human monocytes (human) (UniProt O60603); experiment: flow cytometry on monocytes of a patient's blood sample, 3 µg/mL PE-labeled antibody
[15] = target: TLR2 on human monocytes (human) (UniProt O60603); experiment: flow cytometry on monocytes, MFI of anti-TLR2 antibody minus MFI of control antibody

UniProt O60603, sequence (O60603 21-784): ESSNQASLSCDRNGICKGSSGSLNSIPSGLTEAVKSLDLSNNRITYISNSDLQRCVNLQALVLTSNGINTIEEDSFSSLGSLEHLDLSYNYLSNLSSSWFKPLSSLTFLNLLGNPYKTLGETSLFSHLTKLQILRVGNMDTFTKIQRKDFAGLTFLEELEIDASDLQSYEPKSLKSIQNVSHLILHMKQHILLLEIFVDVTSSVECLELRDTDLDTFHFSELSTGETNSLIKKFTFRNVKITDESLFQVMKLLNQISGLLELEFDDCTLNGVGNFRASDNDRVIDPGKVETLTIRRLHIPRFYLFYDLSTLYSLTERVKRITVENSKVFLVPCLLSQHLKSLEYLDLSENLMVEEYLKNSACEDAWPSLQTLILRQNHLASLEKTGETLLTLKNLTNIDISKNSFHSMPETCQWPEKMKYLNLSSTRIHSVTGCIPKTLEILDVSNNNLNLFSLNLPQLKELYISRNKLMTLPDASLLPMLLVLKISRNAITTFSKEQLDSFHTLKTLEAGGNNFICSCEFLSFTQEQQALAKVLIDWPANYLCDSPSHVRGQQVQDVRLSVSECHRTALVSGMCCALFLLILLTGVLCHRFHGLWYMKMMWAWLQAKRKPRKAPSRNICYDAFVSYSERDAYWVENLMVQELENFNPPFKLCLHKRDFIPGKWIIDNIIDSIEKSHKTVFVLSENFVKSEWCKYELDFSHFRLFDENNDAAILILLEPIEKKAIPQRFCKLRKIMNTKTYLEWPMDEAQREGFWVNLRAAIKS

Row | MFI [1] [MFI] | Delta MFI [2] [MFI] | Delta MFI [3] [MFI] | Delta MFI [4] [MFI] | Delta MFI [5] [MFI] | Delta MFI [6] [MFI] | Delta MFI [7] [MFI] | Delta MFI [8] [MFI] | Delta MFI [9] [MFI] | Delta MFI [10] [MFI] | Delta MFI [11] [MFI] | Delta MFI [12] [MFI] | Delta MFI [13] [MFI] | MFI [14] [MFI] | Delta MFI [15] [MFI] | Substance
1 | 11.7 | – | – | – | – | – | – | – | – | – | – | – | – | – | – | PE-labeled control (mouse IgG2a) antibody
2 | – | 53.7 | 77.5 | 54.1 | 88 | 40.4 | 68.7 | 77.5 | 286 | 88 | 340 | 68.7 | 273 | 104 | 92.6 | PE-bound anti-TLR2 monoclonal antibody (clone name: T2.1, product of eBioscience)

From patent US20100015643A1
